This test has as its target T1, GST-tagged Drosophila Su(H) (Drosophila melanogaster, UniProt P28159 1-594).
T1 construct: Suppressor of Hairless [Su(H)], Drosophila melanogaster; construct GST-Su(H) pGEX-KG of Bailey and Posakony, 1995; also called GST-Su(H); Suppressor of Hairless; source: E. coli, isolated, on Sepharose beads
The test is described as follows: pull-down; in vitro; Sepharose beads bearing GST-Su(H) or only GST, His-tagged Hairless or S-CAP segments in solution; Ptep S-CAP also at 10X input. The following applies: both partners purified.

T1 sequence (P28159 whole entry): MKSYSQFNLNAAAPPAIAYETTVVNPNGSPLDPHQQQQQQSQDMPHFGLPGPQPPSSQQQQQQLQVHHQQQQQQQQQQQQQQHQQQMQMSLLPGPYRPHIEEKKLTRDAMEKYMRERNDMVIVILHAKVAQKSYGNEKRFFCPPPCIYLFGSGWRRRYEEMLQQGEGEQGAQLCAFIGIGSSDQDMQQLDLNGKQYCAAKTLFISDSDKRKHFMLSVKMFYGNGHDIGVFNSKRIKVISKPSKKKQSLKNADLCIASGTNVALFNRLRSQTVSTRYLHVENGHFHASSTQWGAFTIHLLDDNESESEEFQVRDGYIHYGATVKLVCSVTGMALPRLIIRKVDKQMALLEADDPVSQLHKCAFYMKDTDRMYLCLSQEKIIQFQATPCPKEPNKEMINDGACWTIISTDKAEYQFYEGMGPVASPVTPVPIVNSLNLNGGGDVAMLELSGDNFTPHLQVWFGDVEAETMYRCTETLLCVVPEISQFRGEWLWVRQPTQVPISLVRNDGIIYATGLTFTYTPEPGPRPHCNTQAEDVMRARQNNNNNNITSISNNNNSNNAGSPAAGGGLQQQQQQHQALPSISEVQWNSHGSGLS

B1: His-tagged Parasteatoda tepidariorum S-CAP residues 233-432, wild type (domain or fragment)
chain: TVNTEDPPKDSINFLDHSRVTDPCSAASETSLPQDVPATSTVGSLKFFLGGRLVLKLNAQQDGGSGNKCQWVQSNDLPKHSNHNKKDKHKKKFAPYSYSSSGTQKPLKKGDDTSAVPDCDPSGIKKPRLKEYETSENSALGLLLCSSSWTPPVADGQESIDVDDTSSKTSEGYISPILSNNSRTSKIDTIKHDFASNPNT
notes: 200 residues, fits 233-432; Su(H)-Co-repressor Adaptor Protein (S-CAP), house spider Parasteatoda tepidariorum, residues 233-432 with the SBD-like motif; same vector and leader as m9; also called HIS-PtepSCAP233-432 WT; Ptep s-CAP233-432 WT; source: E. coli (codon-optimized for expression in E. coli, pRSET-C), isolated
On to B1, for which the binding result is “binds”.

B2: His-tagged Drosophila melanogaster Hairless residues 192-389, wild type (domain or fragment)
chain: AVVAAAAGTAKIGKGSNSGGSFDMGRTPISTHGNNSWGGYGGRLQFFKDGKFILELARSKDGDKSGWVSVTRKTFRPPSAATSATVTPTSAVTTAYPKNENSTSLSFSDDNSSIQSSPWQRDQPWKQSRPRRGISKELSLFFHRPRNSTLGRAALRTAARKRRRPHEPLTTSEDQQPIFATAIKAENGDDTLKAEAAE
notes: 198 residues, fits 192-389 and L235, F237, L245, L247, W258; the printed DNA starts with linker codons R-W-I-R before the insert; also called HIS-H192-389 WT; Dmel Hairless192-389 WT; source: E. coli (codon-optimized for expression in E. coli, pRSET-C), isolated
On to B2, for which the binding result is “binds”.

The values above are taken from paper PMC6777938, “Evolutionary emergence of Hairless as a novel component of the Notch signaling pathway” (eLife, 2019).
